From patent US20240166738A1 (Alector, published 2024)

B1: TM-61 (antibody, V domains shown)
VH: QVQLQQSGAELAKPGASVKLSCKASGYTFTNYWMNWVKQRPGQGLEWIGYINPSSDYTKYNQNFKDKATLTADKSSSTAYMQLNSLTYEDSAVYYCTRWGGSRSYWYFDVWGAGTTVTVSS
VL: DIVMTQSPSSLSASAGEKVTMSCKSSQSLLNSGNQKNYLAWYQQKPGQSPKLLIYGASTRESGVPDRFTGSGSGTDFTLTISSVQAEDLAVYYCQNDSNYPFTFGGGTKLEMK
B2: TM-21 (antibody, V domains shown)
VH: EVQLVESGGGLVKPGGSLKLSCAASGFTFSNYAMSWVRETPEKRLEWVAFISDGGGYIYYADNVKDRFTISRDNAKNNLYLQMRHLKSEDTAMYYCARDGGTGFTYWGQGTLVTVSV
VL: DIVMTQAAFSNPVTLGTSASISCRSSKSLLHSNGITYLFWYLQKPGQSPQLLIYQMSNLASGVPDRFSSSGSGTDFTLRISRVEAEDVGVYYCVQNLELPYTFGGGTKLEIK
B3: TM-29 (antibody, V domains shown)
VH: QVQLRQSGAELVRPGASVKLSCKASGYTFTDYYINWVKQRPGQGLEWIARIYPGSGYTYYNEKFKGKATLTAEGSSNTAYMQLSSLTSEDSAVYFCANHYTNPFAYWGQGTLVTVSA
VL: DIVMTQAAFSNPVTLGTSASISCRSSKSLLHYNGITYLYWYLQKPGQSPQLLIYQMSNLASGVPDRFSSSGSGTDFTLRISRVEAEDVGVYYCAQNLELPYTFGGGTKLEIK
B4: TM-10 (antibody, V domains shown)
VH: QVQLQQSGAELVKPGASVKISCKGSGYAFSSYWMNWVKQRPGKGLEWIGQIYPGDGDTNYNGKFKGKATLTADKSSTTAYIHLSSLTSEDSAVYFCARWGHYDEAMDDWGQGTSVTVSS
VL: DVVMTQTPLSLPVSLGDQASISCRSSQSLVHSNGKTYLHWYVQKPGQSPKLLIYKISNRFSGVPDRFSGSGSGTDFTLKISRVEAEDLGVYFCSQITHVPWTFGGGTKLESK
B5: TM-72 (antibody, V domains shown)
VH: QVQLQQPGAELVKPGTSVKLSCKASGSTFTNYWMHWVMQRPGQGLEWIGNIDPSDSDTHYNQKFKDRAKLTVDKSSSTAYMQLSGLTSEDSAVYYCARSRGGYYDYGEAMDYWGQGTSVTVSS
VL: DIVMTQAAPSVPVTPGESVSISCRSSKSLLHTNGNTYLFWFIQRPGQSPHLLIYRKSNLASGVPDRFSGSGSGTAFTLRISRVEAEDVGVYYCMQHLEYPFTFGSGTKLEIK
B6: TM-25 (antibody, V domains shown)
VH: EVQLVESGGDLVKPGGSLRLSCAASGFTFSGYGMSWIRQTPDKRLEWVATISSGGRYTVYPDSVKGRFTMSRDNVKNTLYLQMSSLKSEDTALYYCARDNFYSYAMDYWGLGTSVTVSA
VL: DIVMTQAAFSNPVTLGTSASISCRSSKSLLHSNGITYLFWYLQKPGQSPQLLIYQMSNLASGVPDRFSSSGSGTDFTLRISRVEAEDVGVYYCAQNLELWTFGGGTKLEIK
B7: TM-11 (antibody, V domains shown)
VH: QVQLKQSGPGQVQPSQSLSITCTVSGFSLSDYGVHWVRQSPGKGLEWLGVIWNNGNTDYNAAFISRLSINKDNSKSQVFFKMTSLQADDTAIYYCVRSLRPLHFDYWGQGTTVTVSS
VL: DIVMTQSPSSLTMSVGQKVTMHCKSSQSLLNSNNLQNYLAWYQQKPGQSPTLLVYFASIRESGVPDRFIGSGSGTDFTLTISSVQAEDLADYFCQQHYNTPFTFGSGTKLEIR
B8: TM-24 (antibody, V domains shown)
VH: QVQLKQSGPGQVQPSQSLSITCTVSGFSLSDYGVHWVRQSPGKGLEWLGVIWNNGNTDYNAAFISRLSINKDNSKSQVFFKMTSLQADDTAIYYCVRSLRPLHFDYWGQGTTVTVSS
VL: DIVMTQSPSSLTMSVGQKVTMNCKSSQSLLNSNNQQNYLAWYQQKPGQSPKLLVYFASIRESGVPDRFIGSGSGTDFTLTINSVQAEDLADYFCQQHYSTPFTFGSGTKLEIR

target: human TMEM106B (human, UniProt Q9NUM4 2-274); experiment: cell-based or functional assay
Further: test concentration or dose not given here.

Row | Binder | % Protection from CPE
1 | B1 | 94.1%
2 | B2 | 93.7%
3 | B3 | 92.6%
4 | B4 | 93.3%
5 | B5 | 92.7%
6 | B6 | 106%
7 | B7 | 93.9%
8 | B8 | 8.4%
